Source: US20030036181A1 (MAXYGEN, published 2003)

Molecular target: T1, human FSH receptor, stably expressed on CHO K1 cells (CHO FSH-R/CRE-luc cell line) (human, UniProt P23945 18-695)
T1 sequence (looked up): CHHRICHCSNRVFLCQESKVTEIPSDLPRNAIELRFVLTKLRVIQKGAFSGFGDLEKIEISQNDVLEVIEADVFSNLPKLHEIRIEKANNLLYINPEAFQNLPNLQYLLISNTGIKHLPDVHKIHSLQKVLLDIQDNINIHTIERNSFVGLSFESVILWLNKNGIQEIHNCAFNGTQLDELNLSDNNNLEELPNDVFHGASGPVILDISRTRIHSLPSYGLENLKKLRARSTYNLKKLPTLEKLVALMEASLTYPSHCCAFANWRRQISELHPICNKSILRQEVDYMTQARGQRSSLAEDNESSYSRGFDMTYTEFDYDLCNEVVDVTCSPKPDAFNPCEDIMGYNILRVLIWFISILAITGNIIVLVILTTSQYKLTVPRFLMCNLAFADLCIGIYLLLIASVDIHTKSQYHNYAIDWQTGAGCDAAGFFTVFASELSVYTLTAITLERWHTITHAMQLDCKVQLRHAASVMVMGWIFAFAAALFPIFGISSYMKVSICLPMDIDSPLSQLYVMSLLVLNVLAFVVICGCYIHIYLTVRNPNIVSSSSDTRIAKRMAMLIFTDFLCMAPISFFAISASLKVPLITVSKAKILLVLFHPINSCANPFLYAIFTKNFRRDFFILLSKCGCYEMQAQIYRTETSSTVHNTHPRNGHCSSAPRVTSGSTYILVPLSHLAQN
Assay: cell-based or functional assay

specific activity (in vitro bioactivity in the FSH luciferase assay over FSH content by ELISA), relative to the wildtype reference: ~0.33 fold of wildtype FSH
B1: FSH1208: variant form of FSH containing two N-linked glycosylations at the N-terminus of the alpha subunit (ligand)
chain 1: not shown
chain 2: CELTNITIAIEKEECRFCISINTTWCAGYCYTRDLVYKDPARPKIQKTCTFKELVYETVRVPGCAHHADSLYTYPVATQCHCGKCDSDSTDCTVRGLGPSYCSFGEMKE
modifications: both asparagine residues of the extension … are glycosylated
